Data reported in patent US20240270857A1 (CHIA TAI TIANQING PHARMACEUTICAL GROUP, published 2024).
Changes are numbered by the printed parent chain.

T1: cynomolgus IL-36R overexpressed on 293T-CynoIL36R-NFκB cells (cynomolgus monkey)
T1 chain: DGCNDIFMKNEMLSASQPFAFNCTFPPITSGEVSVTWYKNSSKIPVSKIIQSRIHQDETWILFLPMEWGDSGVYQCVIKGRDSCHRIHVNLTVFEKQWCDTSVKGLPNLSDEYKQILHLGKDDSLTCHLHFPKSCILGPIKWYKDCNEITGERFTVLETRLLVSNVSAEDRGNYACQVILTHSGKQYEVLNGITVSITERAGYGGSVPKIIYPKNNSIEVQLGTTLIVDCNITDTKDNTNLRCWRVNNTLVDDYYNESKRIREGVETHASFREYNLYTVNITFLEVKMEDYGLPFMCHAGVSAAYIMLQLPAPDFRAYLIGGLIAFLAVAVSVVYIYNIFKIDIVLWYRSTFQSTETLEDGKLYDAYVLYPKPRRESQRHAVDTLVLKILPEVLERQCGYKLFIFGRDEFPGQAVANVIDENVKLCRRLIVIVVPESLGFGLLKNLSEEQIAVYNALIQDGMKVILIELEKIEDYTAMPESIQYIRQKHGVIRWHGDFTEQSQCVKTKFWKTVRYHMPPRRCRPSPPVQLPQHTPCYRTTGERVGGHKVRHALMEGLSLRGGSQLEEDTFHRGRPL

T2: CynoIL36R-ECD mFc recombinant protein (cynomolgus monkey)
T2 construct: Made in ExpiCHO, purified on Protein A; also called cynomolgus IL-36R extracellular region with mouse antibody heavy chain Fc
T2 chain: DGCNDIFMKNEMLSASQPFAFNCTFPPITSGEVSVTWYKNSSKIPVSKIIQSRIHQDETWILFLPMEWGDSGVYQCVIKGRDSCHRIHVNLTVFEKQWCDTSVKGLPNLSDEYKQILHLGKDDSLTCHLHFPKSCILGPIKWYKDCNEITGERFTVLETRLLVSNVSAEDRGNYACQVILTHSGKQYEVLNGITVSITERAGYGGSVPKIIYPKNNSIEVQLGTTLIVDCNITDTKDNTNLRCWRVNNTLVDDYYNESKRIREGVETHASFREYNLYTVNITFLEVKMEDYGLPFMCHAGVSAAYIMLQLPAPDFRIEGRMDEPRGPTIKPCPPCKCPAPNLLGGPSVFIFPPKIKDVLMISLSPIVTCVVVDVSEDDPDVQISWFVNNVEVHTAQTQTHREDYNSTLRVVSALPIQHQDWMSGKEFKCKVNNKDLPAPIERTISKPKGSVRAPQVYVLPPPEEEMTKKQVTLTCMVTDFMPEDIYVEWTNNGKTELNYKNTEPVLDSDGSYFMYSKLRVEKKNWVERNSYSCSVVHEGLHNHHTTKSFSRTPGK

T3: human IL-36R overexpressed on 293T-hIL36R-NFκB cells (human, UniProt Q9HB29 20-575)
T3 construct: Entry includes the signal peptide; also called IL1RL2; IL-1Rrp2
T3 sequence: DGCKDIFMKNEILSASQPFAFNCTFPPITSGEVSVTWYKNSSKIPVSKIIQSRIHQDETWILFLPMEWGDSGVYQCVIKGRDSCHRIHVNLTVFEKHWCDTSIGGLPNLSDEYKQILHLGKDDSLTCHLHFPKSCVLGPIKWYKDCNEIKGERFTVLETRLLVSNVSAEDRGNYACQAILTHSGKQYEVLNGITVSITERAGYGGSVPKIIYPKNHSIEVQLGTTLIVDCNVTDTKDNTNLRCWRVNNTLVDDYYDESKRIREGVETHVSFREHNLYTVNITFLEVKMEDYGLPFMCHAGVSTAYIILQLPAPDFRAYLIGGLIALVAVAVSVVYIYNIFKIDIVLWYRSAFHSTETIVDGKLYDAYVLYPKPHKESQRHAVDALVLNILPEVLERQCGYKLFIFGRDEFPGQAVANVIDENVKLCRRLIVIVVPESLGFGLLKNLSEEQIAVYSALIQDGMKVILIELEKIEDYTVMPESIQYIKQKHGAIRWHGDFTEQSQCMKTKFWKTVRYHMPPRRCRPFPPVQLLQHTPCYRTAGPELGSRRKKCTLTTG

B1: BI655130 (antibody, human IgG1, kappa, L234A L235A)
heavy: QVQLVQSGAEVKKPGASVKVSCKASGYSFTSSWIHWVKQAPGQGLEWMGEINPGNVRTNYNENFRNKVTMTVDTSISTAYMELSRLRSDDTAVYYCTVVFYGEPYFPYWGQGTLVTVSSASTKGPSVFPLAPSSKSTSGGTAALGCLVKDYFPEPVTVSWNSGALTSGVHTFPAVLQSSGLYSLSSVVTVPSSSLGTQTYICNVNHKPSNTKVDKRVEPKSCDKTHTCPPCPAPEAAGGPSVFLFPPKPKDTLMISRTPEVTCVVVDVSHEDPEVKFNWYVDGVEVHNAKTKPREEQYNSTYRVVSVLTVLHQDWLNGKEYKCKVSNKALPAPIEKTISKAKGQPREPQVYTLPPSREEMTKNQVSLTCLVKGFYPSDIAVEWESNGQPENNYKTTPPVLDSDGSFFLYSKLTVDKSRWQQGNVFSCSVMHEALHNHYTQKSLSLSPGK
light: QIVLTQSPGTLSLSPGERATMTCTASSSVSSSYFHWYQQKPGQAPRLWIYRTSRLASGVPDRFSGSGSGTDFTLTISRLEPEDAATYYCHQFHRSPLTFGAGTKLEIKRTVAAPSVFIFPPSDEQLKSGTASVVCLLNNFYPREAKVQWKVDNALQSGNSQESVTEQDSKDSTYSLSSTLTLSKADYEKHKVYACEVTHQGLSSPVTKSFNRGEC
notes: also called Spesolimab
B2: hz72C1-1.1 (antibody, human IgG4 S228P, kappa)
heavy: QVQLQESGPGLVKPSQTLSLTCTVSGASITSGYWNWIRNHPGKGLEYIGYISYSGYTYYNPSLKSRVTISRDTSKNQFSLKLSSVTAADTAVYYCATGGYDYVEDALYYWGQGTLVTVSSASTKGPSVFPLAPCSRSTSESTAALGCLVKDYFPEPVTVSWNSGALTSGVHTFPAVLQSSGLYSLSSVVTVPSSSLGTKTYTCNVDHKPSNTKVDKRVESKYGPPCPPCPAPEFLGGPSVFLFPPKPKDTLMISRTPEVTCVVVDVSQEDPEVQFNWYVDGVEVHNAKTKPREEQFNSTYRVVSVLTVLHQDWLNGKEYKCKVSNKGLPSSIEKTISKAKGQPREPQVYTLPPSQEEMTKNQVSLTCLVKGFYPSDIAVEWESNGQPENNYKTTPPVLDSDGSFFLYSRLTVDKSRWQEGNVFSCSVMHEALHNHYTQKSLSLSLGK
light: DIQMTQSPSSLSASVGDRVTITCRASSNVRYMYWYQQKPGKAPKLWIYLTSNLASGVPSRFSGSGSGTSYTLTISSLQPEDFATYYCQQFTTSPYTFGQGTKLEIKRTVAAPSVFIFPPSDEQLKSGTASVVCLLNNFYPREAKVQWKVDNALQSGNSQESVTEQDSKDSTYSLSSTLTLSKADYEKHKVYACEVTHQGLSSPVTKSFNRGEC
notes: Humanized, human IgG4 / kappa; also called humanized 72C1 antibody 1.1
B3: hz72C1-1.3 (antibody, human IgG4 S228P, kappa)
heavy: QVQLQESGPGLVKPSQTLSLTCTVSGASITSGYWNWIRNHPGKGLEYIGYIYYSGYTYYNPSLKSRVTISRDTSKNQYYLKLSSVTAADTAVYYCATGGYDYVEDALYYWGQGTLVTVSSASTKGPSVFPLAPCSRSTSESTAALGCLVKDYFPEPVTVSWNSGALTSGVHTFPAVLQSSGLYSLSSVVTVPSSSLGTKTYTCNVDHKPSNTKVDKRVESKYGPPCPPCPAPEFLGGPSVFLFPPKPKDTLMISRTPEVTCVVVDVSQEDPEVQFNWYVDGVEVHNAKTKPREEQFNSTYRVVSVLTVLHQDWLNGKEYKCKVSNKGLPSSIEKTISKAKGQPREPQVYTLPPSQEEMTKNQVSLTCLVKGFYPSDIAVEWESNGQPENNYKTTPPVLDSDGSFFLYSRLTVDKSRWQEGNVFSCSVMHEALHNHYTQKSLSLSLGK
light: B2 light
notes: Humanized, human IgG4 / kappa
B4: chimeric 72C1 antibody (antibody, human IgG4 S228P, kappa)
heavy: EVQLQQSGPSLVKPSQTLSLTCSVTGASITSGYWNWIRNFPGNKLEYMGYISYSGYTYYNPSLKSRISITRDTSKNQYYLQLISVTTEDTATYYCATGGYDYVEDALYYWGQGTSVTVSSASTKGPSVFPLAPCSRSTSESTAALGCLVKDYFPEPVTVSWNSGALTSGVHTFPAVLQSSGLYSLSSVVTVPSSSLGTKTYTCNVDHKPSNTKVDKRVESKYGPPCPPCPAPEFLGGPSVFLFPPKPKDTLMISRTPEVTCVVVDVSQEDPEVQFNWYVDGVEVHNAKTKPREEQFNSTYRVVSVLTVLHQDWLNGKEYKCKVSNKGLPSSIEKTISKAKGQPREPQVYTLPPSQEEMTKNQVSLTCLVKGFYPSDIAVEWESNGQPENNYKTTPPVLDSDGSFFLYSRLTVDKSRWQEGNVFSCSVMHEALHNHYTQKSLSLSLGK
light: EILLTQSPAIMSATLGEKVTMSCRASSNVRYMYWYQLKSGASPKLWIYLTSNLASGVPARFSGSGSGTSYSLTISSVEAEDAATYFCQQFTTSPYTFGGGTKLEIKRTVAAPSVFIFPPSDEQLKSGTASVVCLLNNFYPREAKVQWKVDNALQSGNSQESVTEQDSKDSTYSLSSTLTLSKADYEKHKVYACEVTHQGLSSPVTKSFNRGEC
notes: Mouse variable regions on human IgG4 / kappa; also called xi72C1
B5: chimeric 84C4 antibody (antibody, human IgG4 S228P, kappa)
heavy: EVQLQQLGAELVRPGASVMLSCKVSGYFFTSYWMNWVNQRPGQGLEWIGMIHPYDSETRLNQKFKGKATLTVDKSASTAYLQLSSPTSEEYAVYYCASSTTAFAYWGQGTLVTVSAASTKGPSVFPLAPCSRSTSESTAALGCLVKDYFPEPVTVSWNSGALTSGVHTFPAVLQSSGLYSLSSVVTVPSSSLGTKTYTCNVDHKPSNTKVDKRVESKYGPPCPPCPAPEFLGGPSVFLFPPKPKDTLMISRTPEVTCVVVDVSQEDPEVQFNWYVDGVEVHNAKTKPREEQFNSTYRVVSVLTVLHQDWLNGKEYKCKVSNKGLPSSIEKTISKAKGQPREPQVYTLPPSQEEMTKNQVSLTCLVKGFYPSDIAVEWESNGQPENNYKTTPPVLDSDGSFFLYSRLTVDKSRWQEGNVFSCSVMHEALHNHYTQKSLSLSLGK
light: DILMTQSPSSLSASLGERVSLTCRASQDIGNALNWLQQAPDGTIKRLIYATSSLDPGVPKRFSGSRSGSDYSLTISSLASEDFVYYYCLQYASSPYTFGGGTKLEIKRTVAAPSVFIFPPSDEQLKSGTASVVCLLNNFYPREAKVQWKVDNALQSGNSQESVTEQDSKDSTYSLSSTLTLSKADYEKHKVYACEVTHQGLSSPVTKSFNRGEC
notes: Mouse variable regions on human IgG4 / kappa; also called xi84C4
B6: hz72C1-1.2 (antibody, human IgG4 S228P, kappa)
heavy: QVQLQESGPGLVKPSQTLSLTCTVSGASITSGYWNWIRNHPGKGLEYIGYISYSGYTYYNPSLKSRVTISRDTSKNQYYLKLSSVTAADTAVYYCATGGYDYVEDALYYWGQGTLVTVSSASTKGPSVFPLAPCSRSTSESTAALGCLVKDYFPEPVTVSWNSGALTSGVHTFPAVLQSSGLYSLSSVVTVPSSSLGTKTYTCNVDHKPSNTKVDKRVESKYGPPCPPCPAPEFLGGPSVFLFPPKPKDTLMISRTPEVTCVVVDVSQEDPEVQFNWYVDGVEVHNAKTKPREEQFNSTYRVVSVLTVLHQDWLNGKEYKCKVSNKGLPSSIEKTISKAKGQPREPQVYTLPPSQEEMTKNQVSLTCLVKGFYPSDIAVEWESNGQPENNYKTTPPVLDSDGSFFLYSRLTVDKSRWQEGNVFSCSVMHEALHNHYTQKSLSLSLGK
light: B2 light
notes: Humanized, human IgG4 / kappa
B7: hz72C1-2.1 (antibody, human IgG4 S228P, kappa)
heavy: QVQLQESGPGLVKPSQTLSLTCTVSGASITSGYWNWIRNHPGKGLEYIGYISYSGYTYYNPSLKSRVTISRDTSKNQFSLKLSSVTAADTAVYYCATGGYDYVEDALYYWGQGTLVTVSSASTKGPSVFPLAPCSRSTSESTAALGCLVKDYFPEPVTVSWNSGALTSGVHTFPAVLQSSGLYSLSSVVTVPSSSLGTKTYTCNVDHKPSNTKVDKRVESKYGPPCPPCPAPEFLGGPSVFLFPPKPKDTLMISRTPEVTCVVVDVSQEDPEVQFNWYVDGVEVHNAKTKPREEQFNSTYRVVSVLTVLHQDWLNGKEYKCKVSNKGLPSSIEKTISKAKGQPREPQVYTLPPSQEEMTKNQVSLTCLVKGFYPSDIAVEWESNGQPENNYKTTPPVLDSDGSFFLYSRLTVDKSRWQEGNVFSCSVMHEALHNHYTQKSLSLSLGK
light: B2 light with F90Y
notes: Humanized, human IgG4 / kappa
B8: hz72C1-2.2 (antibody, human IgG4 S228P, kappa)
heavy: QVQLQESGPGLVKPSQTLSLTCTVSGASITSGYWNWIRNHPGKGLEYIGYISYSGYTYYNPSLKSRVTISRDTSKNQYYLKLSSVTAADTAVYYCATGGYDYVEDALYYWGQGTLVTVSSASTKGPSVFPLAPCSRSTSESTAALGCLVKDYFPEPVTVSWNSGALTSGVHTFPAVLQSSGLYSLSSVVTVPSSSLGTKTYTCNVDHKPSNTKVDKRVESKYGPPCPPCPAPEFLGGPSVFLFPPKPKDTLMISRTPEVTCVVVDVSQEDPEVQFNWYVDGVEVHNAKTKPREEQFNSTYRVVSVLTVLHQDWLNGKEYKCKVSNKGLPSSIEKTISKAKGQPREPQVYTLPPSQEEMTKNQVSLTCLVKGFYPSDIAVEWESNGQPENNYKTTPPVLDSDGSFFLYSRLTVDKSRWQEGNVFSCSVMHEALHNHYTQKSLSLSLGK
light: B2 light with F90Y
notes: Humanized, human IgG4 / kappa
B9: hz72C1-2.3 (antibody, human IgG4 S228P, kappa)
heavy: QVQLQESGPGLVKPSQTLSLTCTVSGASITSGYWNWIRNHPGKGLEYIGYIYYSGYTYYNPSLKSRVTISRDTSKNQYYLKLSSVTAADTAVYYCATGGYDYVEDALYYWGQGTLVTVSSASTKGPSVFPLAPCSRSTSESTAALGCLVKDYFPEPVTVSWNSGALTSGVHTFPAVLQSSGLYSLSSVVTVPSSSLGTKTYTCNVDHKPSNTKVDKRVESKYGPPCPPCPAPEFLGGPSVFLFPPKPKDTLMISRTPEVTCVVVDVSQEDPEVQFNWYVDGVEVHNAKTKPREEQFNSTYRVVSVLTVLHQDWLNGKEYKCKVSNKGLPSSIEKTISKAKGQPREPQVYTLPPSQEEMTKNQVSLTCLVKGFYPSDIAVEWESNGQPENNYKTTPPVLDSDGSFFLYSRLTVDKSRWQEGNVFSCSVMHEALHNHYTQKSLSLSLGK
light: B2 light with F90Y
notes: Humanized, human IgG4 / kappa

Molecular target: T1, cynomolgus IL-36R overexpressed on …
Experiment: cell-based or functional assay

Binder | IC50 (M); hIL36α; NFκB-luciferase | IC50 (M); hIL36β; NFκB-luciferase | IC50 (M); hIL36γ; NFκB-luciferase | Maximum inhibition rate %; hIL36α; NFκB-luciferase | Maximum inhibition rate %; hIL36β; NFκB-luciferase | Maximum inhibition rate %; hIL36γ; NFκB-luciferase
B1 | 2.77e-08 M | 5.63e-08 M | 1.19e-08 M | 49.1% | 60.8% | 83.1%
B2 | 3.15e-09 M | 3.09e-09 M | 1.66e-09 M | 101% | 100% | 104%
B3 | 3.13e-09 M | 2.7e-09 M | 1.65e-09 M | 101% | 101% | 103%

Molecular target: T2, CynoIL36R-ECD mFc recombinant protein
Experiment: BLI (ForteBio Octet), antibody on ProA sensor, 1:1 model
Method: The affinity of anti-IL-36R antibodies to CynoIL36R-ECD mFc and human IL-1Rrp2/IL-IR6 protein, His Tag (ACROBiosystems, IL2-H52H6) was measured by a ForteBio molecular interaction instrument. […] And then the biosensor was used to bind CynoIL36R-ECD mFc or human IL-1Rrp2/IL-1R6 protein, His Tag which was diluted by a gradient (the initial concentration was 200 nM, 2-fold gradient dilution), the response signals were detected in real time using a Fortebio molecular interaction instrument (SARTORIUS, octet red 96e), and association and dissociation curves were obtained. After the completion of dissociation in each cycle, the biosensor was regenerated for the next capture; the procedure was repeated until the affinity of the different anti-IL-36R antibodies for IL-36R was determined. The resulting data were analyzed by Fortebio Data Analysis 11.0 software in a 1:1 (Langmuir) binding model to determine kₐ (kₒₙ) and kd (koff) values, and the dissociation constant KD was calculated by KD=kd/kₐ. The detection method essentially followed the manufacturer's recommendations, and more information could be found at www.fortebio.com.
(§1) Affinity, binding and blocking assays for humanized antibodies hz72C1-1.1, hz72C1-1.2, hz72C1-1.3, hz72C1-2.1, hz72C1-2.2 and hz72C1-2.3 as well as hz84C4-1.1, hz84C4-1.2, hz84C4-1.3, hz84C4-1.4, hz84C4-1.5, hz84C4-2.1, hz84C4-2.2, hz84C4-2.3, hz84C4-2.4 and hz84C4-2.5 were performed according to the methods of Example 4, Example 5. Example 6, Example 7 and Example 8.

Binder | Kd | koff | kon
B1 | 2.46 nM | 7.26e-05 s⁻¹ | 29500 M⁻¹ s⁻¹
B2 | 0.66 nM | 1.51e-05 s⁻¹ | 22800 M⁻¹ s⁻¹
B3 | 0.445 nM | 9.42e-06 s⁻¹ | 21200 M⁻¹ s⁻¹
B4 | 0.352 nM | 9.04e-06 s⁻¹ | 25700 M⁻¹ s⁻¹

These binders were tested against T3, human IL-36R overexpressed on … (assay: FACS on 293T-hIL36R-NFκB cells, ratio of MFI to background MFI).
Method: (§2) After the cells was washed with PBS, the cells were resuspended with 100 μL of PBS and then the fluorescence signal was detected using a flow cytometer (BD, Accuri C6). […] The ratio was the ratio of mean fluorescence intensity (MFI) of the experimental group/the background MFI, and the resulting data were analyzed using GraphPad Prism.

Binder | EC50
B1 | 1.33 nM
B4 | 2.52 nM
B5 | 0.886 nM

Molecular target: T1, cynomolgus IL-36R overexpressed on …
Experiment: FACS on 293T-CynoIL36R-NFκB cells, ratio of MFI to background MFI
Method: as §2, §1

Binder | EC50
B1 | 5.64 nM
B6 | ~4.94 nM
B2 | 5.21 nM
B3 | 5.76 nM
B7 | 5.58 nM
B8 | 7.25 nM
B9 | 4.84 nM
